Assay [1] has as its target T1, Matrix metalloproteinase-1 (MMP-1) enzyme (Homo sapiens, UniProt P03956).
T1 construct: purchased Enzo
T1 sequence (P03956 100-269 limits assumed): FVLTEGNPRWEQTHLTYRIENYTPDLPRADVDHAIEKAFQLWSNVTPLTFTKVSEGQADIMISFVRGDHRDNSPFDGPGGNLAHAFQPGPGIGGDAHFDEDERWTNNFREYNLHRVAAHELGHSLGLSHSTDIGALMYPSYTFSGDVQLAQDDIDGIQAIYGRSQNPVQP
Briefly: MMP-1 enzyme activity inhibition in vitro (MMP-1 Fluorometric Drug Discovery Kit). The format is biochemical. As to conditions: for inhibition of MMP-1 enzyme activity compared to the group treated with the only MMP-1 enzyme: 10 μM; for significant effect of inhibiting MMP-1 activity: FIG. 5A. The procedure: MMP-1 Fluorometric Drug Discovery Kit manufactured by Enzo company was used to evaluate an ability to inhibit Matrix metalloproteinase-1 (MMP-1) enzyme activity in the peptide synthesized in Example 3. N-Isobutyl-N-(4-methoxyphenylsulfonyl) glycyl hydroxamic acid (NNGH) which is known to inhibit MMP-1 activity was used as a positive control group, and NNGH was treated at a concentration of 0.65 μM. […] The substrate was added to the reaction mixture, fluorescence thereof was measured at Ex/Em=540/590 nm, and the ability to inhibit MMP-1 activity was evaluated according to the following Equation 2. The results of the ability of inhibiting MMP-1 activity are illustrated in FIG. 5A. Ability to inhibit MMP-1activity(%)=Fluorescence intensity of sample-added group/Fluorescence intensity of non-treated group×100 [Equation 2]

The next assay deals with MMP-1 expression. Briefly: Inhibition of UVB-induced MMP-1 expression in human dermal fibroblasts (Western blot). The following applies: 10 μM, 20 mJ/cm^2 UVB. Type of assay: cell-based. The procedure: Then, ultraviolet ray B was irradiated with 20 mJ/cm^2 using Vilber Lourmat (BioLink Crosslinker, France), cultured for 24 hours, and then cell proteins were recovered. At this time, the medium was removed before ultraviolet irradiation, and then washed with phosphate buffered saline (PBS) solution to remove serum components in the medium and then irradiated with ultraviolet ray B. The cells were washed twice with PBS solution to recover the proteins, and then the cells adhered to the bottom were recovered using a lysis buffer and centrifuged at 14,000 rpm for 10 minutes. After each supernatant was recovered, the protein concentration of each cell supernatant was quantified according to the method of use with a protein assay kit (Bio-Rad, USA) using bovine serum albumin (BSA) as the reference material. About […] protein from each of the protein extracts was denatured and separated by 8% gel sodium dodecyl sulphate-polyacrylamide gel electrophoresis (SDS-PAGE) and transferred to a polyvinylidene fluoride (PVDF) membrane at 120 mA for 2 hours. […]
In general terms: Immunoblotting shows a protein as a band on a membrane.

For the substance FPQN [2n7-5], the “inhibition of MMP-1 enzyme activity compared to the group treated with the only MMP-1 enzyme” value in assay [1] was “inhibited the activity of MMP-1 enzyme”.

With GFGGF [2n7-4], in assay [1], the “inhibition of MMP-1 enzyme activity compared to the group treated with the only MMP-1 enzyme” value was “inhibited the activity of MMP-1 enzyme” and the “significant effect of inhibiting MMP-1 activity” value is on record as “significant effect of inhibiting MMP-1 activity”.

With GLGSR [2-2], in the assay with MMP-1 expression, the “inhibition of MMP-1 expression compared to the group treated with the only UVB” value is on record as roughly 35%. In addition, in assay [1], the “inhibition of MMP-1 enzyme activity compared to the group treated with the only MMP-1 enzyme” value is listed as “inhibited the activity of MMP-1 enzyme” and the “significant effect of inhibiting MMP-1 activity” value is on record as “significant effect of inhibiting MMP-1 activity”.

In the case of GLSGL [KP7-1], in assay [1], the “inhibition of MMP-1 enzyme activity compared to the group treated with the only MMP-1 enzyme” value is reported as “inhibited the activity of MMP-1 enzyme” and the “significant effect of inhibiting MMP-1 activity” value is “significant effect of inhibiting MMP-1 activity”.

On to GPTPL [2-1], for which, in the assay with MMP-1 expression, the “inhibition of MMP-1 expression compared to the group treated with the only UVB” value is “about 24%”. Moreover, in assay [1], the “inhibition of MMP-1 enzyme activity compared to the group treated with the only MMP-1 enzyme” value was “inhibited the activity of MMP-1 enzyme” and the “significant effect of inhibiting MMP-1 activity” value is “significant effect of inhibiting MMP-1 activity”.

For IQPSPV [KP7-2], in assay [1], the “inhibition of MMP-1 enzyme activity compared to the group treated with the only MMP-1 enzyme” value is “inhibited the activity of MMP-1 enzyme” and the “significant effect of inhibiting MMP-1 activity” value is on record as “significant effect of inhibiting MMP-1 activity”.

Turning to PISS [2n7-2], the “inhibition of MMP-1 enzyme activity compared to the group treated with the only MMP-1 enzyme” value in assay [1] is “inhibited the activity of MMP-1 enzyme”.
